Data as given in US20210155691A1, “METHODS OF PREVENTING OR TREATING NON-HEMATOPOIETIC SLAMF7 POSITIVE AND SLAMF7 NEGATIVE CANCERS” (ADAERATA, LIMITED PARTNERSHIP, priority 2018, published 2021).

Key:
thymocytes = assay: Induction of apoptosis in thymocytes (annexin V); type: cell-based, mouse; conditions: 1 μM; 10 hours at 37° C.; thymocytes from C57BL/6 mice; data not shown
[1] = target: T1, mouse CD11b (integrin alphaM, alpha subunit of Mac-1) (mouse, UniProt P05555 17-1153); assay: anti-CD11b immunoprecipitation from BMDM lysates, mass spectrometry
T1 construct: whole, on cells; Endogenous protein in macrophage lysates; It forms Mac-1 together with CD18; also called Mac-1 (CD11b); CR3 alpha subunit
Protocol: Authenticated cells. (FIG. 9D) Lysates from the mouse macrophage cell line RAW264.7 expressing GFP alone or in combination with a FLAG-tagged version of mouse SLAMF7 (FLAG-SLAMF7) were immunoprecipitated with anti-FLAG. They were then probed by immunoblotting with anti-CD11b (Mac-1) or anti-SLAMF7. Total cell lysates were analyzed in parallel. (FIG. 9E) Co-localization of SLAMF7 and CD11b in RAW264.7 cells expressing GFP alone or with FLAG-SLAMF7 assessed by immunofluorescence. Semi-confluent RAW264.7 cells expressing GFP alone (bottom) or in combination with FLAG-SLAMF7 (top) were fixed and stained with antibodies against FLAG, CD11b (Mac-1) or CD18, as detailed in Example 1. Staining was detected by confocal microscopy. Scale bar, 5 μm. […] (FIG. 9F) As in FIG. 9E, except that only RAW264.7 cells expressing FLAG-SLAMF7 were analyzed and that antibodies coupled to different fluorophores were used. […] (FIGS. 9G-A and 9G-B) RAW264.7 derivatives expressing GFP alone or in combination with FLAG-SLAMF7 were analyzed by flow cytometry, using antibodies directed against FLAG and SLAMF7 (dotted lines). […]
Immunoprecipitations, mass spectrometry, immunoblots. […] In brief, immunoprecipitated proteins were digested with trypsin (Promega, Madison, Wis.) and analyzed by LC-MS/MS on a LTQ Orbitrap™ Velos (ThermoFisher Scientific, Bremen, Germany) equipped with a Proxeon Nanoelectrospray™ ion source. […]

T1 sequence (P05555 17-1153): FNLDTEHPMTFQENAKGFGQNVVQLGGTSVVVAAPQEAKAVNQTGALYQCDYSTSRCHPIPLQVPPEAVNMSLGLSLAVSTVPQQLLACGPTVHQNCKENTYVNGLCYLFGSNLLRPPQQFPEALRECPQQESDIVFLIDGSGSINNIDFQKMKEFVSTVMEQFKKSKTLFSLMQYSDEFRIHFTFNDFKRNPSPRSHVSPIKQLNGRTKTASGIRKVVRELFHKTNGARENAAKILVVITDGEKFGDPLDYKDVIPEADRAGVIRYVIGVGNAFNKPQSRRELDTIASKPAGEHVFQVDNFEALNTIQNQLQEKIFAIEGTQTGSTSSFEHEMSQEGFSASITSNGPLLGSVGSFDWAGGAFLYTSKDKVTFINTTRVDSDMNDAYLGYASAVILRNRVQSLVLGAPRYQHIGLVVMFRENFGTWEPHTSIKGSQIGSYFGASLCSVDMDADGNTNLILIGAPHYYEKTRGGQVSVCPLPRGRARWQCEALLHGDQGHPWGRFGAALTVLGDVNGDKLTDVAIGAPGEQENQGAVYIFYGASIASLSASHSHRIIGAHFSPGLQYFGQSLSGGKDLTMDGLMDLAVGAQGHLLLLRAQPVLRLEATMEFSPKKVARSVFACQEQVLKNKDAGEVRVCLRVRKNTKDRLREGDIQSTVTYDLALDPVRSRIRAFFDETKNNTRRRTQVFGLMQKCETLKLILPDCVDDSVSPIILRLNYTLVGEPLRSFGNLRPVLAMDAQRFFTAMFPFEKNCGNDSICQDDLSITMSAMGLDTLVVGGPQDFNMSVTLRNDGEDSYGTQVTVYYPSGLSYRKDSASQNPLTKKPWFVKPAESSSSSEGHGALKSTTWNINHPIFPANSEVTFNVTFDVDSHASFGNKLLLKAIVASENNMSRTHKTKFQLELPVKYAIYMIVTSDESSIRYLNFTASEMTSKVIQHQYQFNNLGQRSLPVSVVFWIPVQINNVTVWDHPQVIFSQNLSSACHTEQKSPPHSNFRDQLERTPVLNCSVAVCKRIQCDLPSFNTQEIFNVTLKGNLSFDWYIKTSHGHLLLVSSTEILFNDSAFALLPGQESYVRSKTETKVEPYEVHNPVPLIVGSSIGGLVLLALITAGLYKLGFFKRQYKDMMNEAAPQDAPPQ

C[C@@H]1C[C@H]2[C@@H]3CCC4=CC(=O)C=C[C@]4(C)[C@@]3(F)[C@@H](O)C[C@]2(C)[C@@]1(O)C(=O)CO [dexamethasone]
cells becoming apoptotic (annexin V-positive) (thymocytes): about 70%

B1: mouse CD64 (Fc receptor) (receptor, UniProt P26151 25-404, looked up)
chain: EVVNATKAVITLQPPWVSIFQKENVTLWCEGPHLPGDSSTQWFINGTAVQISTPSYSIPEASFQDSGEYRCQIGSSMPSDPVQLQIHNDWLLLQASRRVLTEGEPLALRCHGWKNKLVYNVVFYRNGKSFQFSSDSEVAILKTNLSHSGIYHCSGTGRHRYTSAGVSITVKELFTTPVLRASVSSPFPEGSLVTLNCETNLLLQRPGLQLHFSFYVGSKILEYRNTSSEYHIARAEREDAGFYWCEVATEDSSVLKRSPELELQVLGPQSSAPVWFHILFYLSVGIMFSLNTVLYVKIHRLQREKKYNLEVPLVSEQGKKANSFQQVRSDGVYEEVTATASQTTPKEAPDGPRSSVGDCGPEQPEPLPPSDSTGAQTSQS
notes: whole, on cells; Endogenous protein in macrophage lysates
binding result [1]: no binding

B2: mouse CD16 (Fc receptor) (receptor, UniProt P08508 31-261, looked up)
chain: ALPKAVVKLDPPWIQVLKEDMVTLMCEGTHNPGNSSTQWFHNGRSIRSQVQASYTFKATVNDSGEYRCQMEQTRLSDPVDLGVISDWLLLQTPQRVFLEGETITLRCHSWRNKLLNRISFFHNEKSVRYHHYKSNFSIPKANHSHSGDYYCKGSLGSTQHQSKPVTITVQDPATTSSISLVWYHTAFSLVMCLLFAVDTGLYFYVRRNLQTPREYWRKSLSIRKHQAPQDK
notes: as for B1
binding result [1]: no binding
